Experimental data reported in US20260151470A1.

Target: native PfCSP on PfCSP-expressing Plasmodium berghei (PbPf) sporozoites (Plasmodium falciparum) (UniProt P19597)
Test: cell-based or functional assay

Chain of UniProt P19597 (P19597 19-374 limits assumed): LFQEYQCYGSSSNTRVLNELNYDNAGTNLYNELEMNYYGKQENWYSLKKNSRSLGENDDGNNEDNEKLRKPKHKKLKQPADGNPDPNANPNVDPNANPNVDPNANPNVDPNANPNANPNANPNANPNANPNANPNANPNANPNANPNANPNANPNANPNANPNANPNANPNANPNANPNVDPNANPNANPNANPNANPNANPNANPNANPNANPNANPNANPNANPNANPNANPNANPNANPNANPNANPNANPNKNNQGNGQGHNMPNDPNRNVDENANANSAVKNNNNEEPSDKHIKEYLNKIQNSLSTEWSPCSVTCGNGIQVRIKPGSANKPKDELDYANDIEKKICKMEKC

## anti-PfCSP 2A10 monoclonal antibody
  circumsporozoite precipitation reaction (CSPR), mean FSC-W: 1220
